The values that follow come from ChEMBL document CHEMBL2074046, “Selectivity of the polyspecific cation transporter rOCT1 is changed by mutation of aspartate 475 to glutamate” (Mol Pharmacol, 1999).

For series [1], the target named is T1, Solute carrier family 22 member 1 (Rattus norvegicus, UniProt Q63089).
T1 sequence (Q63089 whole entry): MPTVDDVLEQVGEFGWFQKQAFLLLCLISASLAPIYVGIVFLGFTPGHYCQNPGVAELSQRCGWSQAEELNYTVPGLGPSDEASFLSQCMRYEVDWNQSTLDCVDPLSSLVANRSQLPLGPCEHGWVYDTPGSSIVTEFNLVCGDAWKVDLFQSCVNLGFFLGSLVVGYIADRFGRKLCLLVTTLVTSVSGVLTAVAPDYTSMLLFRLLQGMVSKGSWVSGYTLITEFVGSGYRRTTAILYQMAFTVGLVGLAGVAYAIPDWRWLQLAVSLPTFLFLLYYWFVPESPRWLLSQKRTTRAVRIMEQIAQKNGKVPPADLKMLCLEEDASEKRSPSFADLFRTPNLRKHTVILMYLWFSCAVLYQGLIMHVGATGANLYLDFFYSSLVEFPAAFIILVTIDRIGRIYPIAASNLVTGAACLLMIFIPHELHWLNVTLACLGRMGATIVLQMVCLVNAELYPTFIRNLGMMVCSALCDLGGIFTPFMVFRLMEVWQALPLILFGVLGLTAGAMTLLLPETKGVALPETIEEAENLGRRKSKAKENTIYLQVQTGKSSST

The target in series [2] is T1, Solute carrier family 22 member 1. The series is described as follows: TP_TRANSPORTER: inhibition of MPP+ uptake (MPP+: 0.1 uM) in OCT1-expressing HEK293 cells. Type of series: functional, cell-based.
Substrate in series [3]: CC[N+](CC)(CC)CC
As to the kind of experiment: cells, lysate or membranes named.

Substrate in series [4]: C[N+](C)(C)CCO
The series is described as follows: cells, lysate or membranes named.

Substrate in series [5]: CNC(=O)c1cccnc1
The series is described as follows: (§1) TP_TRANSPORTER: uptake in Xenopus laevis oocytes. It counts as functional, cell-based, Oocyte.

Substrate in series [6]: C[n+]1ccc(-c2ccccc2)cc1
The description is as §1. It counts as functional, cell-based, Oocyte.

Substrate in series [7]: C[n+]1ccc(-c2ccccc2)cc1
As to the kind of experiment: TP_TRANSPORTER: uptake in OCT1-expressing HEK293 cells. It counts as functional, cell-based.

On to `CCCC[N+](CCCC)(CCCC)CCCC` [TETRABUTHYLAMMONIUM], for which, in series [1], half-maximal inhibition (IC50) required 3 µM.

In series [2], `CCCCC[N+](CCCCC)(CCCCC)CCCCC` [TETRAPENTYLAMMONIUM] registered an IC50 of 0.18 µM.

B1: Solute carrier family 22 member 1 (Rattus norvegicus) (protein)
chain: MPTVDDVLEQVGEFGWFQKQAFLLLCLISASLAPIYVGIVFLGFTPGHYCQNPGVAELSQRCGWSQAEELNYTVPGLGPSDEASFLSQCMRYEVDWNQSTLDCVDPLSSLVANRSQLPLGPCEHGWVYDTPGSSIVTEFNLVCGDAWKVDLFQSCVNLGFFLGSLVVGYIADRFGRKLCLLVTTLVTSVSGVLTAVAPDYTSMLLFRLLQGMVSKGSWVSGYTLITEFVGSGYRRTTAILYQMAFTVGLVGLAGVAYAIPDWRWLQLAVSLPTFLFLLYYWFVPESPRWLLSQKRTTRAVRIMEQIAQKNGKVPPADLKMLCLEEDASEKRSPSFADLFRTPNLRKHTVILMYLWFSCAVLYQGLIMHVGATGANLYLDFFYSSLVEFPAAFIILVTIDRIGRIYPIAASNLVTGAACLLMIFIPHELHWLNVTLACLGRMGATIVLQMVCLVNAELYPTFIRNLGMMVCSALCDLGGIFTPFMVFRLMEVWQALPLILFGVLGLTAGAMTLLLPETKGVALPETIEEAENLGRRKSKAKENTIYLQVQTGKSSST
On to B1, for which the Km in series [3] was 129 µM; in series [4] it was 370 µM; in series [5], 126 µM; in series [6] it was 2.7 µM; in series [7] it was 9.4 µM.

By IC50 is commonly meant the point on the concentration scale where inhibition reaches its midpoint. The Km is the concentration of substrate that gives half-maximal velocity.
